Data published in patent US20190134064A1, “SELECTIVELY DEGLYCOSYLATED VITAMIN D-BINDING PROTEIN (GCMAF), CHOLECALCIFEROL (CALCIOL), AND PRODUCTION METHOD” (HG PHARMA GMBH, priority 2016, published 2019).

Experiments:
[1] = tested on: monocytes from human whole blood; assay: Formation of superoxide radical anions; format: cell-based; set-up: Superoxide activity: unit not given here; conditions: for Superoxide activity: test substance 50 pg/ml, 3 h incubation; for formation of superoxide radical anions (comparison in words): compared with the other substances tested
Description: Determination of the formation of superoxide radical anions in monocytes from human whole blood was carried out as follows:
Isolation of peripheral mononuclear cells is carried out by density gradient centrifugation from heparinized whole blood. The blood is diluted 1:2 with PBS (without Ca/Mg) and layered onto 15 ml of Histopaque-1077. After this, the cell suspension is centrifuged for 30 min at 700×g and 20° C. The interphase with the mononuclear cells is carefully removed with a Pasteur pipette, made up with 30 ml of PBS (without Ca/Mg), and centrifuged for 5 min at 350×g. The supernatant is decanted, and the cells are taken up in RPMI 1640 medium and counted in the flow cytometer. The cells are adjusted to 10^5 monocytes/ml. For the test batch, 1 ml of cell suspension is pipetted into each 5 ml tube. LPS 100 ng/ml is used as a control. The test substance (GcMAF, GcMAF-calciol or GcMAF-calcitriol) is used in a concentration of 50 pg/ml. The cells are incubated for a total of 3 h in the CO2 incubator. 15 min before the end of incubation, 5 μl each of CD45-V450 antibody and 1 μl of a 1 mM MitoSOX stock solution are added. After this, the cell suspension is made up with 2 ml each of RPMI medium and centrifuged for 5 min at 350×g at room temperature. The supernatant is decanted, and the cells are resuspended in 500 μl of RPMI medium. The cells are measured and analyzed in the flow cytometer. Evaluation is carried out based on the average fluorescence intensity, as described by Saharuddin Bin Mohamad, Hideko Nagasa Wa, Yoshihiro Uto, and Hitoshi Hori in “Preparation of Gc Protein-Derived Macrophage Activating Factor (GcMAF) and its Structural Characterization and Biological Activities”, Anticancer Research 22: 4297-4300 (2002).
Superoxide formation assay
The method used was a modified version of that described by Johnston et al. In brief, after three-hour treatment of the samples, the plates were washed twice with PBS (-) and once with Krebs-Ringer phosphate buffer, pH 7.4, 1.5 ml of 50 μM cytochrome C in Krebs-Ringer phosphate buffer was added, and phorbol myristate acetate (PMA) was added to a final concentration of 5 μg/ml in each well and cultured for 90 minutes in a moistened incubator.
The reaction was stopped using an ice bath. The cultured medium was placed in an Eppendorf tube and centrifuged at 8000 g. The optical density of the supernatant was spectrometrically determined at 550 nm with reference at 540 nm (U-2000, Hitachi) using mixtures of plates without cells as a blank measurement. The concentration of reduced cytochrome C was determined using the equation E550nm=[…].

Peritoneal mouse cells = assay: Phagocytosis activation (phagocytosis index, opsonized sheep red blood cells); format: cell-based; conditions: for phagocytic activity (comparison in words): compared with GcMAF-calcitriol or GcMAF alone; for Macrophage activity: phagocytosis index, three hours of drug treatment, opsonized SRBC cultured for 90 minutes, 250 macrophages counted
Description: Phagocytosis activation was determined as described by Hammarstrom S and Kabat EA in “Studies on specificity and binding properties of the blood group A reactive hemagglutinin from Helix pomatia”, Biochemistry 10: 1684-1692, 1971.
Peritoneal mouse cells were coated in a 24-well plate onto cover glasses. After three hours of drug treatment, the cultures were tested for phagocytic activity. Sheep red blood cells (SRBC) were opsonized using hemolytic rabbit serum (anti-sheep red blood C12HSB cells, Serotec Ltd. England). Opsonized SRBC (0.5%) in RPMI 1640 (serum-free) were layered onto each macrophage-coated cover glass and cultured for 90 minutes. The non-internalized erythrocytes were lyzed by immersing the cover glass in a hypotonic solution (⅕ PBS). The macrophages were fixed with methanol, air-dried, and Giemsa stained. The number of phagocytosed erythrocytes per cell was microscopically determined; 250 macrophages were counted for each data point. The data are expressed as a phagocytosis index, which is defined as the percentage of macrophages with engulfed erythrocytes multiplied by the average number of erythrocytes per macrophage.

[2] = tested on: receptor sites of the ELISA test; assay: Binding to the receptor sites of the ELISA test for vitamin D; conditions: ELISA test selective for calcidiol
Excerpt: The standard test for vitamin D in the blood, the ELISA test, is selective for calcidiol (which has an OH group at position 25). […] The same applies for the complex GcMAF-calcitriol.

Toxicity = assay: Toxicity
Excerpt: (§1) The complex according to the invention can be orally administered. […] Moreover, the complex according to the invention is not toxic.

[3] = Vitamin D content in the blood after oral administration; format: in vivo
Excerpt: as §1

monocytic cells = assay: Monocytic cells after oral administration; format: in vivo

Row | Molecule | Superoxide activity [1] | phagocytic activity (comparison in words) (Peritoneal mouse cells) | Macrophage activity (Peritoneal mouse cells) | binding to the receptor sites of the ELISA test [2] | formation of superoxide radical anions (comparison in words) [1] | formation of superoxide radical anions (comparison in words) ([1]; listed as complex according to the invention) | toxicity (Toxicity) | vitamin D content in the blood ([3]; 12 h after oral administration, 35.9 nM before administration) | absorption in oral administration ([3]; oral administration) | monocytic cells, subsequently converted into macrophages (monocytic cells)
1 | GcMAF-calcitriol: comparative complex; same production method carried out with calcitriol instead of cholecalciferol (protein, UniProt P02774 17-474, looked up, deglycosylated (GcMAF); complexed with calcitriol, comparative complex; same production method carried out with calcitriol instead of cholecalciferol) Vitamin D-binding protein: LERGRDYEKNKVCKEFSHLGKEDFTSLSLVLYSRKFPSGTFEQVSQLVKEVVSLTEACCAEGADPDCYDTRTSALSAKSCESNSPFPVHPGTAECCTKEGLERKLCMAALKHQPQEFPTYVEPTNDEICEAFRKDPKEYANQFMWEYSTNYGQAPLSLLVSYTKSYLSMVGSCCTSASPTVCFLKERLQLKHLSLLTTLSNRVCSQYAAYGEKKSRLSNLIKLAQKVPTADLEDVLPLAEDITNILSKCCESASEDCMAKELPEHTVKLCDNLSTKNSKFEDCCQEKTAMDVFVCTYFMPAAQLPELPDVELPTNKDVCDPGNTKVMDKYTFELSRRTHLPEVFLSKVLEPTLKSLGECCDVEDSTTCFNAKGPLLKKELSSFIDKGQELCADYSENTFTEYKKKLAERLKAKLPDATPTELAKLVNKHSDFASNCCSINSPPLYCDSEIDAELKNIL | 188 | virtually identical to the phagocytic activity of GcMAF alone | 73.2 | does not bind | – | – | – | – | – | –
2 | Gc-calcidiol: complex of vitamin D-binding protein (Gc) and calcidiol (protein, UniProt P02774 17-474, looked up, complexed with calcidiol) Vitamin D-binding protein: LERGRDYEKNKVCKEFSHLGKEDFTSLSLVLYSRKFPSGTFEQVSQLVKEVVSLTEACCAEGADPDCYDTRTSALSAKSCESNSPFPVHPGTAECCTKEGLERKLCMAALKHQPQEFPTYVEPTNDEICEAFRKDPKEYANQFMWEYSTNYGQAPLSLLVSYTKSYLSMVGSCCTSASPTVCFLKERLQLKHLSLLTTLSNRVCSQYAAYGEKKSRLSNLIKLAQKVPTADLEDVLPLAEDITNILSKCCESASEDCMAKELPEHTVKLCDNLSTKNSKFEDCCQEKTAMDVFVCTYFMPAAQLPELPDVELPTNKDVCDPGNTKVMDKYTFELSRRTHLPEVFLSKVLEPTLKSLGECCDVEDSTTCFNAKGPLLKKELSSFIDKGQELCADYSENTFTEYKKKLAERLKAKLPDATPTELAKLVNKHSDFASNCCSINSPPLYCDSEIDAELKNIL | – | – | – | does not bind | – | – | – | – | – | –
3 | GcMAF, purchased from Metavectrum, Germany: GcMAF purchased from Metavectrum, Germany (protein, UniProt P02774 17-474, looked up, selectively deglycosylated (GcMAF)) Vitamin D-binding protein: LERGRDYEKNKVCKEFSHLGKEDFTSLSLVLYSRKFPSGTFEQVSQLVKEVVSLTEACCAEGADPDCYDTRTSALSAKSCESNSPFPVHPGTAECCTKEGLERKLCMAALKHQPQEFPTYVEPTNDEICEAFRKDPKEYANQFMWEYSTNYGQAPLSLLVSYTKSYLSMVGSCCTSASPTVCFLKERLQLKHLSLLTTLSNRVCSQYAAYGEKKSRLSNLIKLAQKVPTADLEDVLPLAEDITNILSKCCESASEDCMAKELPEHTVKLCDNLSTKNSKFEDCCQEKTAMDVFVCTYFMPAAQLPELPDVELPTNKDVCDPGNTKVMDKYTFELSRRTHLPEVFLSKVLEPTLKSLGECCDVEDSTTCFNAKGPLLKKELSSFIDKGQELCADYSENTFTEYKKKLAERLKAKLPDATPTELAKLVNKHSDFASNCCSINSPPLYCDSEIDAELKNIL | 150 | – | 68 | – | – | – | – | – | – | –
4 | GcMAF-calciol: dimeric complex of a selectively deglycosylated vitamin D-binding protein (GcMAF) and cholecalciferol (calciol) (protein, UniProt P02774 17-474, looked up, deglycosylated (GcMAF); complexed with cholecalciferol) Vitamin D-binding protein: LERGRDYEKNKVCKEFSHLGKEDFTSLSLVLYSRKFPSGTFEQVSQLVKEVVSLTEACCAEGADPDCYDTRTSALSAKSCESNSPFPVHPGTAECCTKEGLERKLCMAALKHQPQEFPTYVEPTNDEICEAFRKDPKEYANQFMWEYSTNYGQAPLSLLVSYTKSYLSMVGSCCTSASPTVCFLKERLQLKHLSLLTTLSNRVCSQYAAYGEKKSRLSNLIKLAQKVPTADLEDVLPLAEDITNILSKCCESASEDCMAKELPEHTVKLCDNLSTKNSKFEDCCQEKTAMDVFVCTYFMPAAQLPELPDVELPTNKDVCDPGNTKVMDKYTFELSRRTHLPEVFLSKVLEPTLKSLGECCDVEDSTTCFNAKGPLLKKELSSFIDKGQELCADYSENTFTEYKKKLAERLKAKLPDATPTELAKLVNKHSDFASNCCSINSPPLYCDSEIDAELKNIL | 142 | significantly higher | 83.5 | does indeed bind | lower | lowest of all of the substances tested | not toxic | 44.25 nM | absorbed by the body in oral administration | significant increase
5 | GcMAF, produced as described: selectively deglycosylated vitamin D-binding protein, self-produced, with final filtration via a 100,000 Da filter (protein, UniProt P02774 17-474, looked up, selectively deglycosylated (GcMAF)) Vitamin D-binding protein: LERGRDYEKNKVCKEFSHLGKEDFTSLSLVLYSRKFPSGTFEQVSQLVKEVVSLTEACCAEGADPDCYDTRTSALSAKSCESNSPFPVHPGTAECCTKEGLERKLCMAALKHQPQEFPTYVEPTNDEICEAFRKDPKEYANQFMWEYSTNYGQAPLSLLVSYTKSYLSMVGSCCTSASPTVCFLKERLQLKHLSLLTTLSNRVCSQYAAYGEKKSRLSNLIKLAQKVPTADLEDVLPLAEDITNILSKCCESASEDCMAKELPEHTVKLCDNLSTKNSKFEDCCQEKTAMDVFVCTYFMPAAQLPELPDVELPTNKDVCDPGNTKVMDKYTFELSRRTHLPEVFLSKVLEPTLKSLGECCDVEDSTTCFNAKGPLLKKELSSFIDKGQELCADYSENTFTEYKKKLAERLKAKLPDATPTELAKLVNKHSDFASNCCSINSPPLYCDSEIDAELKNIL | 199 | – | 73.0 | – | – | – | – | – | – | –
